Experimental findings from US20210261668A1 (DRAGONFLY THERAPEUTICS, published 2021) are described below.

Residue numbers refer to the chain shown, from its start.

To fix the notation:
T1: human NKG2D-Fc fusion protein (human, UniProt P26718 73-216)
T1 construct: extracellular domain; also called recombinant human NKG2D-Fc; human recombinant NKG2D; not shown: human IgG1 Fc domain
T1 sequence (looked up): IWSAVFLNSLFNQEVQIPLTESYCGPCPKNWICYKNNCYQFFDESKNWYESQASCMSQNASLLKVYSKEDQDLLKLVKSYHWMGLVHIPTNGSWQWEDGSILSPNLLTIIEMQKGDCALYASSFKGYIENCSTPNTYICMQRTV

T2: cynomolgus NKG2D-Fc fusion protein (cynomolgus; human, UniProt P61252 73-216)
T2 construct: extracellular domain; also called cynomolgus recombinant NKG2D-Fc; cynomolgus recombinant NKG2D; not shown: human IgG1 Fc domain
T2 sequence (looked up): T1 sequence (looked up) with D43N, T133I

T3: mouse NKG2D-Fc fusion protein (mouse; human, UniProt O54709 90-232)
T3 construct: extracellular domain; also called mouse recombinant NKG2D-Fc; recombinant mouse NKG2D-Fc; not shown: human IgG1 Fc domain
T3 sequence (looked up): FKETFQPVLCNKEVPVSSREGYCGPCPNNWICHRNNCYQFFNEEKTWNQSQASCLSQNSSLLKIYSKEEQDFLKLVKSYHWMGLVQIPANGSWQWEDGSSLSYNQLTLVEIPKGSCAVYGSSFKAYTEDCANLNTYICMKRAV

B1: ADI-27705 (antibody, V domains shown)
VH: QVQLQQWGAGLLKPSETLSLTCAVYGGSFSGYYWSWIRQPPGKGLEWIGEIDHSGSTNYNPSLKSRVTISVDTSKNQFSLKLSSVTAADTAVYYCARARGPWSFDPWGQGTLVTVSS
VL: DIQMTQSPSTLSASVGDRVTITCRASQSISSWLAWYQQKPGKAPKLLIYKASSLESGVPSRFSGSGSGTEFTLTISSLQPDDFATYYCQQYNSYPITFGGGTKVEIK
B2: ADI-29403 (antibody, V domains shown)
VH: B1 VH
VL: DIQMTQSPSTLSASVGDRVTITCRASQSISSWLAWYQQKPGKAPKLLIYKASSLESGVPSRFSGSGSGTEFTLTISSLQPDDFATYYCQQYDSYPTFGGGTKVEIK
B3: ADI-27741 (antibody, V domains shown)
VH: B1 VH
VL: DIQMTQSPSTLSASVGDRVTITCRASQSIGSWLAWYQQKPGKAPKLLIYKASSLESGVPSRFSGSGSGTEFTLTISSLQPDDFATYYCQQSNSYYTFGGGTKVEIK
B4: ADI-29426 (antibody, V domains shown)
VH: B1 VH
VL: B3 VL with S91Y, N92H, Y94F, Y95P
B5: ADI-29407 (antibody, V domains shown)
VH: B1 VH
VL: B3 VL with G30S, S91Y, N92Q, Y94F, Y95P
B6: ADI-27743 (antibody, V domains shown)
VH: B1 VH
VL: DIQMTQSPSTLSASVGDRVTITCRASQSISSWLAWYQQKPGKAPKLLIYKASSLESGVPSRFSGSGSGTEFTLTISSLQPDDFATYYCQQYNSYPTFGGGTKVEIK
B7: ADI-29425 (antibody, V domains shown)
VH: B1 VH
VL: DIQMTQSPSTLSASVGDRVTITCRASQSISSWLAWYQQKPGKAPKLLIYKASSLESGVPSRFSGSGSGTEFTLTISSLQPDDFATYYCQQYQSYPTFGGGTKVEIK
B8: ADI-29401 (antibody, V domains shown)
VH: B1 VH
VL: B3 VL with S91Y, N92D, S93I, Y95P
B9: ADI-29404 (antibody, V domains shown)
VH: B1 VH
VL: B3 VL with G30S, Q89E, S91Y, N92D, Y95P
notes: also called F04
B10: ADI-29424 (antibody, V domains shown)
VH: B1 VH
VL: B3 VL with G30S, S91Y, N92D, Y94F, Y95I
B11: ADI-29405 (antibody, V domains shown)
VH: B1 VH
VL: B3 VL with G30S, S91Y, N92G, Y94F, Y95P
B12: ADI-27740 (antibody, V domains shown)
VH: B1 VH
VL: B3 VL with S91Y, N92H, Y94F
notes: also called A40
B13: ADI-29429 (antibody, V domains shown)
VH: B1 VH
VL: DIQMTQSPSTLSASVGDRVTITCRASQSIGSWLAWYQQKPGKAPKLLIYKASSLESGVPSRFSGSGSGTEFTLTISSLQPDDFATYYCQQYELYSYTFGGGTKVEIK
B14: ADI-29421 (antibody, V domains shown)
VH: B1 VH
VL: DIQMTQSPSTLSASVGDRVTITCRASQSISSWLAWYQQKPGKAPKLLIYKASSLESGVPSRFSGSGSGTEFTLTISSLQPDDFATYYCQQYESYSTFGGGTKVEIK
B15: ADI-28226 (antibody, V domains shown)
VH: B1 VH
VL: B13 VL with G30S, E92G, L93S, Y94F, S95P, Y96I
notes: also called C26
B16: ADI-29419 (antibody, V domains shown)
VH: B1 VH
VL: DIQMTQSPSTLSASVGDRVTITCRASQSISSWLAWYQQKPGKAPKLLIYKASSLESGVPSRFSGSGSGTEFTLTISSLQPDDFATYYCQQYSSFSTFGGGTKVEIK
B17: ADI-29399 (antibody, V domains shown)
VH: B1 VH
VL: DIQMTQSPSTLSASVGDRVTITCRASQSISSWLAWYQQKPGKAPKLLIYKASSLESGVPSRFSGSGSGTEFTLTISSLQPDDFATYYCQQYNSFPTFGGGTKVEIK
B18: ADI-29447 (antibody, V domains shown)
VH: B1 VH
VL: B3 VL with G30S, S91Y, N92D, S93T, Y94F, Y95I
notes: also called F47
B19: ADI-29443 (antibody, V domains shown)
VH: QLQLQESGPGLVKPSETLSLTCTVSGGSISSSSYYWGWIRQPPGKGLEWIGSIYYSGSTYYNPSLKSRVTISVDTSKNQFSLKLSSVTAADTAVYYCARGSDRFHPYFDYWGQGTLVTVSS
VL: EIVLTQSPATLSLSPGERATLSCRASQSVSRYLAWYQQKPGQAPRLLIYDASNRATGIPARFSGSGSGTDFTLTISSLEPEDFAVYYCQQFDTWPPTFGGGTKVEIK
notes: also called F43
B20: ADI-27727 (antibody, V domains shown)
VH: QVQLVQSGAEVKKPGSSVKVSCKASGGTFSSYAISWVRQAPGQGLEWMGGIIPIFGTANYAQKFQGRVTITADESTSTAYMELSSLRSEDTAVYYCARGDSSIRHAYYYYGMDVWGQGTTVTVSS
VL: not shown

The target of the first experiment is T1, human NKG2D-Fc fusion protein. The experiment in a line: ELISA on coated NKG2D-Fc.
Consider B1, for which the binding result is “binds”.
With B2, the binding result is “binds”.
As to B3, the binding result is “binds”.
Consider B4, for which the binding result was “binds”.
In the case of B5, the binding result is reported as “binds”.
Regarding B6, the binding result is recorded as “binds”.
In the case of B7, the binding result was “binds”.
On the same count and under the same terms, the value for B8 was “binds”.
B9: the binding result is recorded as “binds”.
With B10, the binding result is “binds”.
Same read-out and setting: to B11 belongs “binds”; to B12, “binds”.
Turning to B13, the binding result is recorded as “binds”.
Still for that read-out and setting: the value for B14 was “binds”.
For the molecule B15, the binding result is “binds”.
For B16, the binding result is reported as “binds”.
Same read-out and setting: to B17 belongs “binds”; to B18, “binds”.
For B19, the binding result was “binds”.
As for B20, the binding result was “binds”.

A further experiment has as its target T2, cynomolgus NKG2D-Fc fusion protein. The experiment in a line: ELISA on coated NKG2D-Fc. A general note: In an ELISA, binding on a coated surface is turned into a signal by an enzyme label.
B1: the binding result was “binds”.
Regarding B2, the binding result is recorded as “binds”.
The same measure, in the same setting: to B3 belongs “binds”; to B4, “binds”.
B5: the binding result is reported as “binds”.
On to B6, for which the binding result is given as “binds”.
As to B7, the binding result was “binds”.
Regarding B8, the binding result is listed as “binds”.
On to B9, for which the binding result is “binds”.
B10: the binding result is on record as “binds”.
Consider B11, for which the binding result is reported as “binds”.
B12: the binding result is “binds”.
As to B13, the binding result is on record as “binds”.
As for B14, the binding result is on record as “binds”.
The same measure, in the same setting: to B15 belongs “binds”.
Regarding B16, the binding result is on record as “binds”.
As to B17, the binding result is “binds”.
Regarding B18, the binding result is on record as “binds”.
Turning to B20, the binding result is listed as “binds”.

A further experiment deals with T3, mouse NKG2D-Fc fusion protein. Briefly: ELISA on coated NKG2D-Fc.
For the molecule B1, the binding result was “binds”.
The same measure, in the same setting: to B2 belongs “binds”.
Consider B3, for which the binding result is reported as “binds”.
With B4, the binding result is “binds”.
As to B5, the binding result is on record as “binds”.
On the same count and under the same terms, to B6 belongs “binds”; to B7, “binds”; to B8, “binds”.
Consider B9, for which the binding result is recorded as “binds”.
With B10, the binding result is “binds”.
Consider B11, for which the binding result was “binds”.
Same read-out and setting: to B12 belongs “binds”; to B13, “binds”; to B14, “binds”.
Turning to B15, the binding result was “binds”.
For the molecule B16, the binding result was “binds”.
Same read-out and setting: the value for B17 was “binds”; that for B18 was “binds”; that for B19 was “binds”.
B20: the binding result was “binds”.
